# Measurements from the DeepSol protein solubility set.
# Assay: soluble on expression in E. coli; label from the status in PepcDB or PDB records
row,Sequence,soluble on expression in E. coli
1,MTSRVDPANPGSELDSAIRDTLTYSNSPVPNALLTASESGFLDAAGIELDVLSGQQGTVHFTYDQPAYTRFGGEIPPLLSEGLRAPGRTRLLGITPLLGRQGFFVRDDSPITAAADLAGRRIGVSASAIRILRGQLGDYLELDPWRQTLVALGSWEARALLHTLEHGELGVDDVELVPISSPGVDVPAEQLEESATVKGADLFPDVARGQAAVLASGDVDALYSWLPWAGELQATGARPVVDLGLDERNAYASVWTVSSGLVRQRPGLVQRLVDAAVDAGLWARDHSDAVTSLHAANLGVSTGAVGQGFGADFQQRLVPRLDHDALALLERTQQFLLTNNLLQEPVALDQWAAPEFLNNSLNRHR,soluble
2,MTSTFLYKFYPNYNAKNCGDRMPKLMLALDVLDRDRALKIVEDVKDYVDAIKVGYPLVLSTGTEIIKEIKKLCNKEVIADFKVADIPATNEKIAKITLKYADGIIVHGFVGEDSVKAVQDVAKKLNKKVIMVTEMSHPGAVQFLQPIADKLSEMAKKLKVDAIVAPSTRPERLKEIKEIAELPVITPGVGAQGGKIEDILNILDENDYVIVGRAIYQSQNPKEEAKKYKEMLNK,soluble
3,MTSTRHHRGARRALRHLTTTTAHARRAFSPADLRQLEAAVREGERRHRGEVRIVIEASLPVRDAWAGVTPRQRARTLFGLLEVWNTHEHVGVLLYLNLADHAVEILADRGIAARVEPHAWRAICETITHGFAQGVAIGPVLEALGQIHAVLAAHFPSDGAPRANELADKPLVLLEHHHHHH,soluble
4,MTSVLDPDRALEDEAKDKFGFVGIAKQLAPPIIEAAKGEGMVIGLEGRWGSGKTSLLNFLRAELQASKKSGIHTITIAPWLNGDTSSLVLSLLEPMAAVLKQKEDELAESYGEGQSATKERVAEVGRLLRAYGPKTARRIASLANVAGYVLPGAQAIGGALAASASAADEIFDVGPTPSELKQELAVKIQELNVGFIVILDDLDRLEPEQAVEVVRLVRSVADFPKVVYLMCYDREVLSEALKTGLKVSDGDLFLQKIVQLTFNIPLPEPFDLRTQFRNEAKAIYFEATGVDLDGAILHDLTYAVDREGMGLSTPREVKLALNSIRFVFSQVKDDVYFPDLCRLHLIKTTNYKLYKWLEIYLSVRSVLVTGDATVSEDEKTKMGEELKMLLPASGPGSVHSIWSLARFIPGVVDTEKVSERVFNAINSSAISEAVRLKRLGSPLHYRFYFALTGPKTVMPDEDFNAILELARNDIDQLESRLAAETMKRRDSGRTWFEHVLDRLDDDCISSLDESQLSGILHALSGMMDIAMKEDGEVRSFALSLDGIANIVAKRCLVRLRELNPEKQANTVRSMAQDGKAINWLVGKFFRSQLFNHGKVGERAERPEQWEISEDLLDDIIEILRKRLSEQDIKNLIPNLPNVSAYLYGWMNLTDDDQAKNWVQEYSESDEGFLDILNHLRGWAMSDKVYYPLSEKTVSSFLDWNEVKTRLDGMQLEHHHHHH,not soluble
5,MTTAHISGDWRTRYQHVTSFYFKTNHKVWCKVILSLLHTHIPMIIFIDMKGVNMDLIIQTFPLDGKTLYYVQCPVCKNNRILNSGANVSRIISDDTFRKLCGCTCDVKPATSKVEAPKQVKKAAVKKEAAPKRTGKVLTAVINGKEMTVKEIAEAYDISTSTVRQRINAGKPESEIIAPTKKK,not soluble
6,MTTHRRRPKHDPKESEQEILNAAKQFLNERPFRELTVDEVMRRTGLKRPAFYVHFRDKHDLALRLVQAIGQELFGIADRWLEGDNPQEDLRRALVGLVEVYMKHSHVLRAFAEAASGDERVNSIYRAFVQEFISAAAQHIREEQATGQIQKDIDIDETARALIWLEERYLSDVFGRMPPADPEVVIRVLQNIWISTLYGSN,soluble
7,MTTLYSIQEKYQQLLNLAEQLDPEALKDTLESIEDELETKAENVAFVIKELEGQSLILDVEIKRLSERKNTINNNVKRLKQSLHDAMLVANKQKIKTNLFTLDIRKNPHSVFVEDESKLINYLVEQPKKLDKTKLKDDLKKGIDVPGAVLVQTERLQIK,not soluble
8,MTTNKDHFMAKIQLVAQANLPTEYGIFKMVGFEFPDTKKEHVALVMGDISNADEPVLARIHSECLTGDALHSLKCDCGFQLATALKQIQEEGRGVLIYHREEGRGIGLINKIRAYSLQDKGMDTIEANLALGFKADERNFEVCADMFELLGVKKVRLMTNNPEKVETMKKAGINVVERVPLNVGENRYNTKYLDTKAKKMGHYIVHNNDEQHLMTCPHCQEEIILEHHHHHH,soluble
9,MTTPTFDINAAIQALREGKDLTGKDGILTPLIKQLTEAALAAELDSHLTSTEGANRKNGKTTKTIKSPLGNFELNTPRDRAGTFEPQLVKKHQTQLTDEMERKIIGLFSLGSSYQDIRAHIEDMYGMSVSNGTVNAITDKLLPELQAWRERELEPLYPVIWLDAIHYKIKENGRFISKAVYTILALNVDGKKELLGLYLSDNEGAHHWLSVLTDLYNRGVKDILIACVDGLKGFPEAIATIYPQTEVQLCVIHQIRNSIKYVASKHQKAFMADLKCVYKAATLNAAEMALDELETKWGDKYPVVIKSWRNKWALLSVYFKYPDYVRTAIYTTNAVEAVHRQFRKLAKTKGGFANENSLLKLLYAGILKASERWTHP,soluble
10,MTTQNELLNRIAELETKVAFQDNVIEELNQVLIHHQFVLDKLQTQVRHFANKFKNIQSSNVASQAEETPPPHY,soluble
11,MTTRKPFIICDFDGTITMNDNIINIMKTFAPPEWMALKDGVLSKTLSIKEGVGRMFGLLPSSLKEEITSFVLEDAKIREGFREFVAFINEHEIPFYVISGGMDFFVYPLLEGIVEKDRIYCNHASFDNDYIHIDWPHSCKGTCSNQCGCCKPSVIHELSEPNQYIIMIGDSVTDVEAAKLSDLCFARDYLLNECREQNLNHLPYQDFYEIRKEIENVKEVQEWLQNKNAGESSLKLEHHHHHH,soluble
12,MTTTDVSWPKSLWHAVTGPGPGLPALHGAEEADVVVVGGGFSGLSTALHLREAGVDVAVVEAAEPGWGASGRNNGQVIPTLSRPDPEDIVAKHGAAGERLVGLIRDSASILFDVAKRHGVDAEQEQNGWVQPVHSPGRIKIAERRFRQWSKFGAPVELLSRDQVRDMLGSEAWFGGFWNRTGGHVNPLALARGLARAVLAQGGRIFARSPAVSIERRGDRWIVKTAQGEISGRALVVASNAYTGEFSKTLAPAIASEVMPVRSWQMATQPLSDNVRKTIIPGRQAMSDTHGELIFGRFDARNRFVTGGAIIRPFNQIATLKARVGKRLQRLWPQIGEVRFDYVWNGFIGMTTDYLPHIHRLGPNAYGWTGCNGRGVALSVALGRELSKAVRGVTDGELALPFTEPTPIPANELLRPFAPLMMVLYRHRDAKEIGLEHHHHHH,not soluble
13,MTTTGHVHFYIGTYTNPPSTSTSTGIARLSLNTETGELTRLDDVVVQRNPSYLTTTEHGLYTFSEMDRNEGTELAFFRGSESVSLPINGDYPCHLDIKEPLLAVANYGSGNVSVFQLDRDGKPLGLLADLYVDGCGPNLERQTSPHAHQVTFLKHSHQLVVVDLGSDSVLIYDYDAQPPDFSLSQVIHLPAGSGPRHVVFNQQESTAYVVCELSETLIVLVKHQDKWLISNQTELLEGEENQQAAAAIRLSQDETFLYVSCRAQNKISMFDVSGDTPKRRAAIHCEGVFPRDFVLSHDQKWLLVANQHSNNVVSFRRNPQTGEITPTGYDCEIGSPVCIVEQPLLEHHHHHH,not soluble
14,MTTTPIADQAAVLAEGMADQTPSEALEAFGAEQAELDAAGVPSGIATAGSLMPDASLLDVHGNATTLQQVREGRPAVVVFYRGAWCPYCNLALRTYERELAPRLAERGVSMIAVSPQRPDGSLTMAQTNDLSYDVLSDPGNHIGRALGIVTRPTDRVQHAQASLGLDLTEVNADGTPDILMPTVAIVDAEGVLRWIDVHPNYVTRSEPARILEALARAVR,not soluble
